Reference: paper PMC13397619

B1: NLV3 TCR beta chain (CDR3β only) (parent)
chain: ASSPTGGSPSPLH

Variants of: B1
Assay: T-Switch: Jurkat TCRβ−/− cells expressing a CDR3 saturation-mutagenesis library, stained with two peptide-HLA-A*02:01 tetramers (original and novel peptide) plus anti-CD3, FACS-sorted into four gates, gDNA sequenced
Conditions: tetramers 1 µg/mL, 30 min on ice, SP, DP and SW gates expanded about 10 days between rounds ('two to three rounds of selection' in the Methods), unresolved parent, parent is a CDR3 fragment, scale: fold enrichment, numbering: sequential-on-construct, sequence starts at 1
[1] = with both tetramers (double-negative gate, binds neither): HLA-A*02:01 with … and with …, gate DN: OPPOSITE: higher = more of the variant in the gate that binds neither peptide = LESS binding (or no expression; inferred). Fold enrichment of the CDR3 variant in one FACS gate of a two-tetram
[2] = with both tetramers (double-positive gate): HLA-A*02:01 with … and with …, gate DP: higher = more of the variant in the gate that binds both peptides. Fold enrichment of the CDR3 variant in one FACS gate of a two-tetramer stain. SP/DP/SW gates were expanded and re-sorted bef

Row | Variant | enrichment [1] | enrichment [2]
1 | […] (CDR3 as printed); S8M derived by comparing it with the table's wild-type CDR3 ASSPTGGSPSPLH | 1.29 | 0
2 | […] (CDR3 as printed); H13M derived by comparing it with the table's wild-type CDR3 ASSPTGGSPSPLH | 0.598 | 0
3 | […] (CDR3 as printed); S2K derived by comparing it with the table's wild-type CDR3 ASSPTGGSPSPLH | 0.571 | 0
4 | […] (CDR3 as printed); G6K derived by comparing it with the table's wild-type CDR3 ASSPTGGSPSPLH | 1.4 | 0
5 | […] (CDR3 as printed); A1Y derived by comparing it with the table's wild-type CDR3 ASSPTGGSPSPLH | 1.15 | 0
6 | […] (CDR3 as printed); G6D derived by comparing it with the table's wild-type CDR3 ASSPTGGSPSPLH | 0.99 | 0
7 | […] (CDR3 as printed); L12K derived by comparing it with the table's wild-type CDR3 ASSPTGGSPSPLH | 0.756 | 0
8 | […] (CDR3 as printed); G7N derived by comparing it with the table's wild-type CDR3 ASSPTGGSPSPLH | 0.87 | 0
9 | […] (CDR3 as printed); S10P derived by comparing it with the table's wild-type CDR3 ASSPTGGSPSPLH | 1.37 | 0
10 | […] (CDR3 as printed); P11R derived by comparing it with the table's wild-type CDR3 ASSPTGGSPSPLH | 0.579 | 0
11 | […] (CDR3 as printed); G7K derived by comparing it with the table's wild-type CDR3 ASSPTGGSPSPLH | 1.36 | 0
12 | […] (CDR3 as printed); P9T derived by comparing it with the table's wild-type CDR3 ASSPTGGSPSPLH | 1.11 | 0
13 | […] (CDR3 as printed); P4Y derived by comparing it with the table's wild-type CDR3 ASSPTGGSPSPLH | 0.624 | 0
14 | […] (CDR3 as printed); A1C derived by comparing it with the table's wild-type CDR3 ASSPTGGSPSPLH | 1.24 | 0
15 | […] (CDR3 as printed); S3N derived by comparing it with the table's wild-type CDR3 ASSPTGGSPSPLH | 0.483 | 0
16 | […] (CDR3 as printed); P9H derived by comparing it with the table's wild-type CDR3 ASSPTGGSPSPLH | 0.681 | 0
17 | […] (CDR3 as printed); S10Q derived by comparing it with the table's wild-type CDR3 ASSPTGGSPSPLH | 0.571 | 0
18 | […] (CDR3 as printed); S8K derived by comparing it with the table's wild-type CDR3 ASSPTGGSPSPLH | 0.743 | 0
19 | […] (CDR3 as printed); T5H derived by comparing it with the table's wild-type CDR3 ASSPTGGSPSPLH | 0.879 | 0
20 | […] (CDR3 as printed); P11A derived by comparing it with the table's wild-type CDR3 ASSPTGGSPSPLH | 0.423 | 0
21 | […] (CDR3 as printed); A1S derived by comparing it with the table's wild-type CDR3 ASSPTGGSPSPLH | 1.25 | 0
22 | […] (CDR3 as printed); G6S derived by comparing it with the table's wild-type CDR3 ASSPTGGSPSPLH | 0.376 | 0
23 | […] (CDR3 as printed); S2Y derived by comparing it with the table's wild-type CDR3 ASSPTGGSPSPLH | 0.769 | 0
24 | […] (CDR3 as printed); L12P derived by comparing it with the table's wild-type CDR3 ASSPTGGSPSPLH | 1.2 | 0
25 | […] (CDR3 as printed); S8C derived by comparing it with the table's wild-type CDR3 ASSPTGGSPSPLH | 0.677 | 0
26 | […] (CDR3 as printed); T5N derived by comparing it with the table's wild-type CDR3 ASSPTGGSPSPLH | 0.924 | 0
27 | […] (CDR3 as printed); P9N derived by comparing it with the table's wild-type CDR3 ASSPTGGSPSPLH | 1.65 | 0
28 | […] (CDR3 as printed); S2M derived by comparing it with the table's wild-type CDR3 ASSPTGGSPSPLH | 0.757 | 0
